Measured values taken from patent EP4703387A1 (University of Tsukuba, dated 2026).
Numbering of substitutions follows the chain as printed. Numbers in names are those of the source.

Legend:
[1] = target: T1, human CD300A-Q (human, UniProt Q9UGN4 18-299); assay: flow cytometry on BW/huCD300A-Q cells, purified antibody, 0.5 µg per 1 × 10^5 cells
T1 construct: whole, on cells; also called huCD300A-Q; human CD300A^Gln111
T1 sequence (looked up): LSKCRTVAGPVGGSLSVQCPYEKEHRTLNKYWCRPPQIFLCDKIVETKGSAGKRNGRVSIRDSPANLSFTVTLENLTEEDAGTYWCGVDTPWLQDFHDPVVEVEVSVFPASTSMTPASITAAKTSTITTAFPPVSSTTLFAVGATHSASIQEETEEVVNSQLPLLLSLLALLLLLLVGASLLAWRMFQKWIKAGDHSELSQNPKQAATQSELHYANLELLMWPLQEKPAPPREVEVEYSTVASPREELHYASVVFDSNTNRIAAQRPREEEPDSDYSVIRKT

[2] = target: T2, human CD300C (human, UniProt Q08708 21-224); assay: flow cytometry on BW/huCD300C cells, purified antibody
T2 construct: whole, on cells; also called huCD300C; BW/huCD300C
T2 sequence (looked up): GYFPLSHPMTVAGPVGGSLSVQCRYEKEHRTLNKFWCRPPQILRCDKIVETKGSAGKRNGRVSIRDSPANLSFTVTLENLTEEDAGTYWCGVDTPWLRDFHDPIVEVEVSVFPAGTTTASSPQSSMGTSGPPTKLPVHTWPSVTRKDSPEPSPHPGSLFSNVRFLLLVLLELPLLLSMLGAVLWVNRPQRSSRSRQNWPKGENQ

[3] = target: T1, human CD300A-Q; assay: assay not given; reference antibody in the CD300A-Q flow cytometry comparison of paragraph 258
[4] = target: T1, human CD300A-Q; assay: flow cytometry analysis using CD300A-Q
[5] = target: T2, human CD300C; assay: flow cytometry on BW/huCD300C cells, biotinylated antibody with SA-APC
[6] = target: T3, human CD300A-R (as used in the BLI measurement) (human, UniProt Q9UGN4 18-180, limits assumed); assay: biolayer interferometry (BLI); format not described
T3 sequence (looked up): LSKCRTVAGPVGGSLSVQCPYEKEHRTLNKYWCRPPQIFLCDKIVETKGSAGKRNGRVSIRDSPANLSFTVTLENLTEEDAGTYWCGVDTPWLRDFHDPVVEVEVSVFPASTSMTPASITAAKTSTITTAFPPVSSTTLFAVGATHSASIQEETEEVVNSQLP

[7] = target: T1, human CD300A-Q; assay: assay not named for Hu NO. 1V on CD300A-Q (CD300A-Q flow cytometry is listed for Hu NO. 1R, 1U and 1W)
[8] = target: T1, human CD300A-Q; assay: assay not named for Hu NO. 1T on CD300A-Q (CD300A-Q flow cytometry is listed for Hu NO. 1R, 1U and 1W)

B1: Antibody NO. 3 (antibody, V domains shown)
VH: QIQLVQSGPELKKPGETVKISCKASGYTFTHYGLNWVKQAPGKGLQWMGWIHTYTGESTYADDFKGRSAFSLETSASTAYLQINNLKNEDTATYFCARGGKDALDYWGQGTSVTVSS
VL: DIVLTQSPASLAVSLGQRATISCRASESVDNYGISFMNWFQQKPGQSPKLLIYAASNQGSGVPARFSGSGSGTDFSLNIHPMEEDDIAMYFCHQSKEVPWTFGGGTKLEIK
notes: Mouse monoclonal antibody from a hybridoma
- binding result [1]: binds
- binding result [2]: no binding (tested: 0.5 µg antibody per 1 × 10^5 cells)

B2: Antibody NO. 1 (antibody, V domains shown)
VH: EVQLVESGGDLVKPGGSLKLSCAASGFTFSSYGMSWVRQTPDKRLEWVATISSGGSYTYYPDSVKGRFTISRDNAKNTLYLQMSSLKSEDTAMYYCARHGDYGYPWFAYWGQGTLVTVSA
VL: QIVLTQSPAIMSASLGERVTMTCTASSSVSSSYLHWYQQKPGSSPKLWIYSTSNLASGVPARFSGSGSGTSYSLTISSMEAEDAATYYCHQYHRSHTFGGGTKLEIK
notes: Mouse monoclonal antibody from a hybridoma, purified from ascites; also called mouse Antibody NO
- binding result [1]: binds
- binding result [2]: no binding (tested: 0.5 µg antibody per 1 × 10^5 cells)

B3: chimeric NO. 1 IgG1/kappa antibody (Ch NO. 1) (antibody, V domains shown)
VH: B2 VH
VL: B2 VL
notes: Mouse NO; 1 VH and VL on human γ-1 and κ constant regions; The γ-1 chain carries L234A/L235A; also called mouse-human chimeric NO; 1 IgG1/kappa antibody
- binding result [3]: binds

B4: HuNO.1R (antibody, V domains shown)
VH: EVQLVESGGGLVQPGGSLRLSCAASGFTFSSYGMSWVRQAPGKRLEWVATISSGGSYTYYPDSVKGRFTISRDNAKNSLYLQMNSLRAEDTAVYYCARHGDYGYPWFAYWGQGTMVTVSS
VL: QIQMTQSPSSLSASVGDRVTMTCTASSSVSSSYLHWYQQKPGKAPKLWIYSTSNLASGVPSRFSGSGSGTDYTLTISSLQPEDFATYYCHQYHRSHTFGGGTKVEIK
notes: Transient HEK293 supernatant; Human IgG/kappa constant regions
- binding result [4]: binds

B5: HuNO.1U (antibody, human IgG1, kappa, L234A L235A, V domains shown)
VH: B4 VH with G42D
VL: QIQMTQSPSSLSASVGDRVTMTCTASSSVSSSYLHWYQQKPGKAPKLWIYSTSNLASGVPSRFSGSGSGTDYTLTISSLQPEDFATYYCHQYHRSHTFGGGTKVEIKR
notes: VH = Hu NO; also called Humanized NO; 1 antibody
- binding result [5]: no binding (tested: 0.5 µg antibody per 1 × 10^5 cells)
- Kd [6]: 0.022 µM

B6: HuNO.1V (antibody, V domains shown)
VH: B4 VH with V93M
VL: B4 VL
notes: Position 89 may be a Kabat number rather than a count on the entry; Transient HEK293 supernatant; Human IgG/kappa constant regions
- binding result [7]: binds

B7: HuNO.1W (antibody, V domains shown)
VH: B4 VH with G10D
VL: B4 VL
notes: as for B4
- binding result [4]: binds

B8: HuNO.1T (antibody, V domains shown)
VH: B4 VH with R19K
VL: B4 VL
notes: as for B4
- binding result [8]: binds
